Laboratory results as given in publication PMC5070119.

How the values were obtained:
[1] = target: cytosolic purine 5'-nucleotidase (cN-II) L375F, C-terminally truncated (human) (UniProt P49902); assay: SEC; Superdex 200 10/300 GL, 50 mM sodium phosphate pH 7.4, 100 mM NaCl, 2 mM TCEP; 200 ul of 0.5 mg/ml protein; calibrated with high molecular weight standards
[2] = target: cytosolic purine 5'-nucleotidase (cN-II) L375F, C-terminally truncated (human) (UniProt P49902); assay: SAXS; truncated proteins 0.25 to 2 mg/ml in 50 mM sodium phosphate pH 7.4, 100 mM NaCl, 2 mM TCEP, 5 % glycerol; BM29 beamline ESRF; Guinier approximation, P(r), Porod volume
[3] = target: cytosolic purine 5'-nucleotidase (cN-II), C-terminally truncated wild type (human) (UniProt P49902); assay: SEC; Superdex 200 10/300 GL, 50 mM sodium phosphate pH 7.4, 100 mM NaCl, 2 mM TCEP; 200 ul of 0.5 mg/ml protein; calibrated with high molecular weight standards
[4] = target: cytosolic purine 5'-nucleotidase (cN-II), C-terminally truncated wild type (human) (UniProt P49902); assay: SAXS; truncated proteins 0.25 to 2 mg/ml in 50 mM sodium phosphate pH 7.4, 100 mM NaCl, 2 mM TCEP, 5 % glycerol; BM29 beamline ESRF; Guinier approximation, P(r), Porod volume
[5] = target: cytosolic purine 5'-nucleotidase (cN-II) R367Q, C-terminally truncated (human) (UniProt P49902); assay: SEC; Superdex 200 10/300 GL, 50 mM sodium phosphate pH 7.4, 100 mM NaCl, 2 mM TCEP; 200 ul of 0.5 mg/ml protein; calibrated with high molecular weight standards
[6] = target: cytosolic purine 5'-nucleotidase (cN-II) R367Q, C-terminally truncated (human) (UniProt P49902); assay: SAXS; truncated proteins 0.25 to 2 mg/ml in 50 mM sodium phosphate pH 7.4, 100 mM NaCl, 2 mM TCEP, 5 % glycerol; BM29 beamline ESRF; Guinier approximation, P(r), Porod volume
[7] = target: cytosolic purine 5'-nucleotidase (cN-II) R238W, C-terminally truncated (human) (UniProt P49902); assay: SEC; Superdex 200 10/300 GL, 50 mM sodium phosphate pH 7.4, 100 mM NaCl, 2 mM TCEP; 200 ul of 0.5 mg/ml protein; calibrated with high molecular weight standards
[8] = target: cytosolic purine 5'-nucleotidase (cN-II) R238W, C-terminally truncated (human) (UniProt P49902); assay: SAXS; truncated proteins 0.25 to 2 mg/ml in 50 mM sodium phosphate pH 7.4, 100 mM NaCl, 2 mM TCEP, 5 % glycerol; BM29 beamline ESRF; Guinier approximation, P(r), Porod volume

cytosolic purine 5'-nucleotidase (cN-II) L375F, C-terminally truncated (from UniProt P49902 1-536) (enzyme)
stoichiometry N [1]: 4
stoichiometry N [2]: 4

cytosolic purine 5'-nucleotidase (cN-II), C-terminally truncated wild type (from UniProt P49902 1-536) (enzyme)
stoichiometry N [3]: 4
stoichiometry N [4]: 4

cytosolic purine 5'-nucleotidase (cN-II) R367Q, C-terminally truncated (from UniProt P49902 1-536) (enzyme)
stoichiometry N [5]: 4
stoichiometry N [6]: 4

cytosolic purine 5'-nucleotidase (cN-II) R238W, C-terminally truncated (from UniProt P49902 1-536) (enzyme)
stoichiometry N [7]: 4
stoichiometry N [8]: 4
